Assay results from patent US20100167390, “Novel Oligonucleotide and NF-kB Decoy Comprising the Same” (published 2010).

T1: NF-kB p52 (NFKB2) (UniProt Q00653 Q00653:1-454)
T1 sequence: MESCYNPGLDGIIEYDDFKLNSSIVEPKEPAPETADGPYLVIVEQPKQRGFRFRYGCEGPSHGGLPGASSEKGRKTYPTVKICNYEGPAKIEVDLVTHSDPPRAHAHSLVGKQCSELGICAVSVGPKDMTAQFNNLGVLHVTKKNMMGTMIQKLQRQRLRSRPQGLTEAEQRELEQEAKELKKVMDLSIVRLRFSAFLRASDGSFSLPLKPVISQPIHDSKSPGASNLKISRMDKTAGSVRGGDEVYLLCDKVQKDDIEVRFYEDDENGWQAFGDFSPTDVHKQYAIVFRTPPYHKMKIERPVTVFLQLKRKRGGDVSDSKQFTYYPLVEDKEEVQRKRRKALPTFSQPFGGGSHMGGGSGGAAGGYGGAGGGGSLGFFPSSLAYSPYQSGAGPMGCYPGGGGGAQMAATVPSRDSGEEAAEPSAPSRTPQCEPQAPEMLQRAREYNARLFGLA


How the values were obtained:
NF-kB p50 (NFKB1) = NF-kB p50 (NFKB1) (UniProt P19838 P19838:1-433); experiment: competition; details: protein: extract; tags: TPA and CI-stimulated Jurkat nuclear extract, Active Motif
NF-kB p50 (NFKB1), sequence (P19838 1-433, one chain of several): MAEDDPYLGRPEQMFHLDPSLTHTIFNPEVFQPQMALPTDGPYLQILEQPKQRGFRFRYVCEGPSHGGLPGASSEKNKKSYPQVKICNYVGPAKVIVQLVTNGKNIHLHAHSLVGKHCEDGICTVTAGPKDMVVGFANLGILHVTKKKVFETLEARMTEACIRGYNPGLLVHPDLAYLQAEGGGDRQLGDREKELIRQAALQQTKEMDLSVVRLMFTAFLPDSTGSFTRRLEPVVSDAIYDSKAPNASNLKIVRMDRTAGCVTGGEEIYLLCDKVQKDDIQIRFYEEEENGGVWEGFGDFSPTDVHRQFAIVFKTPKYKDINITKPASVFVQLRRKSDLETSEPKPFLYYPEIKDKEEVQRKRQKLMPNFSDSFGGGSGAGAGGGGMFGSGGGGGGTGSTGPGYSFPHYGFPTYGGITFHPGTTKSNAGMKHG
Procedure: (§1) The study was carried out in basically the same manner as in the above-described primary screening. The activities to inhibit the binding of various NF-κB family proteins to the consensus NF-κB binding site were compared under the conditions of common ratio of 3-fold, 6 times, n=2. As a control for comparison, fully phosphorothioated decoy oligonucleotide […] (SEQ ID NO:103) was used. The binding inhibition tests against various NF-κB family proteins were conducted using NF-κB Family TransAM Kit (ACTIVE MOTIF), and using NF-κB molecules in the Jurkat, TPA and CI-Stimulated, Nuclear Extract (ACTIVE MOTIF) for p50, and using NF-κB molecules in the Raji nuclear extract (ACTIVE MOTIF) for Rel-B and p52. As the primary antibodies, anti-NF-κB p50 antibody, anti-NF-κB p52 antibody and anti-Rel-B antibody were used, respectively, and the secondary antibody was HRP-labeled anti-rabbit IgG antibody in all cases.
(§2) More concretely, the above-described measurements were carried out as follows: Each oligonucleotide solution was serially diluted with Complete Binding Buffer to prepare test samples. Each of the test samples was added to the wells in an amount of 30 μL per well, and Complete Binding Buffer was added to the wells of the control and blank. Nuclear extract diluted with Complete Lysis Buffer was added to the wells in an amount of 20 μL per well, and Complete Lysis Buffer was added to the wells of blank. After incubation for 1 hour with shaking, each well was washed with 1× Wash Buffer, and the primary antibody was added, followed by incubation for 1 hour. Each well was washed with 1× Wash Buffer, and the secondary antibody was added, followed by incubation for 1 hour. Each well was washed with 1× Wash Buffer, and the Developing Solution was added. After allowing coloration for 10 minutes, the Stop Solution was added to stop the reaction, and the absorbances at 450 nm and 630 nm were measured.
(§3) The absorbance at 630 nm was subtracted from the absorbance at 450 nm and the mean value of the blanks was further subtracted from the resultant, and the percentage of the mean value of each concentration based on the mean value of the controls was calculated.

NF-kB p52 (NFKB2) = molecular target: T1, NF-kB p52 (NFKB2); experiment: competition; details: protein: extract; tags: Raji nuclear extract, Active Motif
Procedure: as §1, §2, §3

NF-kB p65 (RelA) [1] = molecular target: T2, NF-kB p65 (RelA) (UniProt Q04206 Q04206:1-551); experiment: competition; details: protein: extract; tags: TPA and CI-stimulated Jurkat nuclear extract, Active Motif TransAM kit
T2 sequence (Q04206 whole entry, one chain of several): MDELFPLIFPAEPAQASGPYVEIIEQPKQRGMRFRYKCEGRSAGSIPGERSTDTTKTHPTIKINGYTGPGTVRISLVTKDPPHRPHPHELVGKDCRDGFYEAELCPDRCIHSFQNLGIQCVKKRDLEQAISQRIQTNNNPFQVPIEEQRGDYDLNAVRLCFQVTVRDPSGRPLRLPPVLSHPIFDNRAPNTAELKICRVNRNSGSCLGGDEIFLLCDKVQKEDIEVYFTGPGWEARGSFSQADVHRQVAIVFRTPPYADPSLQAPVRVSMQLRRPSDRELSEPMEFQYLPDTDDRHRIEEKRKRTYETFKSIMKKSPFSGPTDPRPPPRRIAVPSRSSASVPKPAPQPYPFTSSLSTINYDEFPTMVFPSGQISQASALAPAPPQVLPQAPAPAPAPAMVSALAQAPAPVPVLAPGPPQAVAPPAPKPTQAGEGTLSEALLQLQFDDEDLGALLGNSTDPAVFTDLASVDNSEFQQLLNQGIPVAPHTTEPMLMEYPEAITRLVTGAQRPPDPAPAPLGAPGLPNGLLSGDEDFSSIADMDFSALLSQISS
Procedure: The binding capacity of each SODN to NF-κB was evaluated by measuring the remaining free NF-κB after reacting each SODN with NF-κB (p65), using a commercially available kit (TransAM Kit (NF-κB, p65, ACTIVE MOTIF) for measuring NF-κB, and using NF-κB molecules in the Jurkat, TPA and CI-Stimulated, Nuclear Extract (nuclear extract of Jurkat cells stimulated with a phorbol ester (TPA) and a calcium ionophore (CI)). The measurement was performed in accordance with the instructions attached to the kit. The kit was made for quantifying the NF-κB bound to the solid phase by ELISA after adding an NF-κB solution to the wells in which the NF-κB (p65 protein) consensus binding sequence was immobilized and after washing the resultant. By this measurement method, the higher the binding capacity of the oligonucleotide to the NF-κB, the smaller amount of the NF-κB quantified by the ELISA.
More concretely, the above-described measurement was carried out as follows concretely: Each SODN solution was serially diluted with Complete Binding Buffer contained in the kit to prepare test samples (common ratio: 3-fold, 4 times, n=3). To each well, 30 μL of the test sample was added. To the wells of the control and blank, Complete Binding Buffer was added. To each well, 20 μL of the Jurkat, TPA and CI-Stimulated, Nuclear Extract contained in the kit, after dilution with Complete Lysis Buffer to a concentration of 125 μg/mL, was added. To the wells of the blank, Complete Lysis Buffer was added. After incubation for 1 hour with shaking, each well was washed with 1× Wash Buffer contained in the kit, and an anti-NF-κB (p65 protein) antibody was added, followed by incubation for 1 hour. Each well was washed with 1× Wash Buffer, and the Developing Solution contained in the kit was added. After allowing coloration for 10 minutes, the Stop Solution was added to stop the reaction, and the absorbances at 450 nm and 630 nm were measured.
The binding capacities of the partially phosphorothioated oligonucleotides (the bonds between only all of the nucleotides constituting the consensus sequence in both strands are phosphorothioated, hereinafter also referred to as “PSODN”) of SODNs 7, 8, 9, 16, 17 and 30 of the present invention to the NF-κB (p65 protein) were tested in the same manner as described above.

NF-kB p65 (RelA) [2] = molecular target: T2, NF-kB p65 (RelA); experiment: competition; primary screen 2.01; details: protein: extract; tags: TPA and CI-stimulated Jurkat nuclear extract, Active Motif TransAM kit
Procedure: (§4) The measurement was performed in accordance with the instructions attached to the kit. The kit was made for quantifying the NF-κB bound to the solid phase by ELISA after adding an NF-κB solution to the wells in which the NF-κB (p65 protein) consensus binding sequence was immobilized and after washing the resultant. By this measurement method, the higher the binding capacity of the oligonucleotide to the NF-κB, the smaller amount of the NF-κB quantified by the ELISA.
(§5) More concretely, the above-described measurement was carried out as follows concretely: Each SODN solution was serially diluted with Complete Binding Buffer contained in the kit to prepare test samples (common ratio: 3-fold, 4 times, n=3). […] After allowing coloration for 10 minutes, the Stop Solution was added to stop the reaction, and the absorbances at 450 nm and 630 nm were measured.
(§6) The absorbance at 630 nm was subtracted from the absorbance at 450 nm and the mean value of the blanks was further subtracted from the resultant, and the percentage of the mean value of each concentration based on the mean value of the controls was calculated. The concentration at which the calculated value was 50% (i.e., at which the binding was inhibited by 50%) was calculated from the regression lines between two points interposing 50% (an analysis software Graph Pad PRISM 4, GraphPad SOFTWARE was used). […]

NF-kB p65 (RelA) [3] = molecular target: T2, NF-kB p65 (RelA); experiment: competition; primary screen 3.06; details: protein: extract; tags: TPA and CI-stimulated Jurkat nuclear extract, Active Motif TransAM kit
Procedure: as §4, §5, §6

NF-kB p65 (RelA) [4] = molecular target: T2, NF-kB p65 (RelA); experiment: competition; details: protein: extract; tags: TPA and CI-stimulated Jurkat nuclear extract, Active Motif TransAM kit; remark: listed apart in the source
Procedure: To study the influence by the phosphorothioation site in the oligonucleotide sequence, decoy oligonucleotides (FSODN) in which only the flanking sequences were phosphorothioated and decoy oligonucleotides (ODN) without phosphorothioation having the same sequences, respectively, were synthesized. The binding inhibition activities were compared under the conditions of common ratio of 3-fold, 6 times, n=2. The binding inhibition tests against NF-κB p65 protein was carried out using NF-κB, p65 TransAM Kit (produced by ACTIVE MOTIF), and using NF-κB protein molecules in the Jurkat, TPA and CI-Stimulated, Nuclear
Extract (produced by ACTIVE MOTIF). The testing method was the same as in the above-described Example 5. The term “only the flanking sequences were phosphorothioated” means that the bonds in the flanking sequences and the bonds between the respective flanking sequences and the core were phosphorothioated. For example, as for Sequence 7, it is CsGsCs[…]sAsGsC. The values for PSODNs are those obtained in the secondary screening (above-described Table 4).

NF-kB p65 (RelA) [5] = molecular target: T2, NF-kB p65 (RelA); experiment: competition; ELISA competition with immobilized consensus site; 4.77 in Table 3-2, 4.93 in Table 4; Table 7 lists 4.93, 4.30, 3.24 in PSODN, FSODN, ODN columns; details: protein: extract; tags: TPA and CI-stimulated Jurkat nuclear extract, Active Motif TransAM kit
NF-kB p65 (RelA) [6] = molecular target: T2, NF-kB p65 (RelA); experiment: competition; primary screen 1.31; details: protein: extract; tags: TPA and CI-stimulated Jurkat nuclear extract, Active Motif TransAM kit
Procedure: as §4, §5, §6

NF-kB p65 (RelA) [7] = molecular target: T2, NF-kB p65 (RelA); experiment: competition; primary screen >5; details: protein: extract; tags: TPA and CI-stimulated Jurkat nuclear extract, Active Motif TransAM kit
Procedure: as §4, §5, §6

NF-kB p65 (RelA) [8] = molecular target: T2, NF-kB p65 (RelA); experiment: competition; primary screen 1.33; details: protein: extract; tags: TPA and CI-stimulated Jurkat nuclear extract, Active Motif TransAM kit
Procedure: as §4, §5, §6

NF-kB p65 (RelA) [9] = molecular target: T2, NF-kB p65 (RelA); experiment: competition; primary screen 1.37; details: protein: extract; tags: TPA and CI-stimulated Jurkat nuclear extract, Active Motif TransAM kit
Procedure: as §4, §5, §6

NF-kB p65 (RelA) [10] = molecular target: T2, NF-kB p65 (RelA); experiment: competition; primary screen 1.61; details: protein: extract; tags: TPA and CI-stimulated Jurkat nuclear extract, Active Motif TransAM kit
Procedure: as §4, §5, §6

NF-kB p65 (RelA) [11] = molecular target: T2, NF-kB p65 (RelA); experiment: competition; primary screen 2.23; details: protein: extract; tags: TPA and CI-stimulated Jurkat nuclear extract, Active Motif TransAM kit
Procedure: as §4, §5, §6

Binder	IC50 (NF-kB p50 (NFKB1)) [nM]	IC50 (NF-kB p52 (NFKB2)) [nM]	IC50 (NF-kB p65 (RelA) [1]) [nM]	further results
PSODN30 (dsDNA, PS only within consensus gggatttccc, both strands) DNA 1: GGCTGGGATTTCCCGCGG DNA 2: CCGCGGGAAATCCCAGCC	0.69	2.11	0.48	–
SODN9 (dsDNA, PS all bonds, both strands) DNA 1: GGAGGGATTTCCCGGG DNA 2: CCCGGGAAATCCCTCC	–	–	–	IC50 (NF-kB p65 (RelA) [2]): 1.88 nM
SODN91 (dsDNA, PS all bonds, both strands) DNA 1: GTAAAATGGGATTTCCCGAG DNA 2: CTCGGGAAATCCCATTTTAC	–	–	–	IC50 (NF-kB p65 (RelA) [3]): 2.58 nM
FSODN16 (dsDNA, PS only in flanks and flank-core bonds) DNA 1: CGCAGGGATTTCCCGCG DNA 2: CGCGGGAAATCCCTGCG	–	–	–	IC50 (NF-kB p65 (RelA) [4]): 1.11 nM
PSODN17 (dsDNA, PS only within consensus gggatttccc, both strands) DNA 1: CCCTGGGATTTCCCGCC DNA 2: GGCGGGAAATCCCAGGG	0.91	4.29	0.48	–
Control decoy (conventional NF-kB decoy) (dsDNA, PS all bonds, both strands) DNA 1: CCTTGAAGGGATTTCCCTCC DNA 2: GGAGGGAAATCCCTTCAAGG	8.45	8.42	–	IC50 (NF-kB p65 (RelA) [5]): 5.26 nM
SODN6 (dsDNA, PS all bonds, both strands) DNA 1: CGAGGGATTTCCCGGC DNA 2: GCCGGGAAATCCCTCG	–	–	–	IC50 (NF-kB p65 (RelA) [6]): 2.33 nM
PSODN16 (dsDNA, PS only within consensus gggatttccc, both strands) DNA 1: CGCAGGGATTTCCCGCG DNA 2: CGCGGGAAATCCCTGCG	0.8	2.37	0.41	–
SODN8 (dsDNA, PS all bonds, both strands) DNA 1: CCCGGGATTTCCCACC DNA 2: GGTGGGAAATCCCGGG	–	–	–	IC50 (NF-kB p65 (RelA) [2]): 2.12 nM
PSODN9 (dsDNA, PS only within consensus gggatttccc, both strands) DNA 1: GGAGGGATTTCCCGGG DNA 2: CCCGGGAAATCCCTCC	0.91	1.55	0.54	–
SODN83 (dsDNA, PS all bonds, both strands) DNA 1: CAAGTAGGGATTTCCCATAC DNA 2: GTATGGGAAATCCCTACTTG	–	–	–	IC50 (NF-kB p65 (RelA) [7]): 7.33 nM
SODN17 (dsDNA, PS all bonds, both strands) DNA 1: CCCTGGGATTTCCCGCC DNA 2: GGCGGGAAATCCCAGGG	–	–	–	IC50 (NF-kB p65 (RelA) [6]): 1.81 nM
PSODN8 (dsDNA, PS only within consensus gggatttccc, both strands) DNA 1: CCCGGGATTTCCCACC DNA 2: GGTGGGAAATCCCGGG	1.08	3.22	0.63	–
SODN30 (dsDNA, PS all bonds, both strands) DNA 1: GGCTGGGATTTCCCGCGG DNA 2: CCGCGGGAAATCCCAGCC	–	–	–	IC50 (NF-kB p65 (RelA) [8]): 1.87 nM
PSODN7 (dsDNA, PS only within consensus gggatttccc, both strands) DNA 1: CGCGGGATTTCCCAGC DNA 2: GCTGGGAAATCCCGCG	1.02	3.01	0.54	–
SODN16 (dsDNA, PS all bonds, both strands) DNA 1: CGCAGGGATTTCCCGCG DNA 2: CGCGGGAAATCCCTGCG	–	–	–	IC50 (NF-kB p65 (RelA) [9]): 1.98 nM
SODN7 (dsDNA, PS all bonds, both strands) DNA 1: CGCGGGATTTCCCAGC DNA 2: GCTGGGAAATCCCGCG	–	–	–	IC50 (NF-kB p65 (RelA) [10]): 1.75 nM
SODN27 (dsDNA, PS all bonds, both strands) DNA 1: CGCAGGGATTTCCCGCGC DNA 2: GCGCGGGAAATCCCTGCG	–	–	–	IC50 (NF-kB p65 (RelA) [11]): 2.87 nM
